# B1: Zinc finger protein with KRAB and SCAN domains 4 (Homo sapiens), Q969J2 (parent)
# chain: MAREPRKNAALDAQSAEDQTGLLTVKVEKEEASALTAEVRAPCSPARGPERSRQRFRGFRYPEAAGPREALSRLRELCGQWLQPEMHSKEQILELLVLEQFLTILPGNLQSWVREQHPESGEEVVVLLEYLERQLDEPAPQVPVGDQGQELLCCKMALLTQTQGSQSSQCQPMKALFKHESLGSQPLHDRVLQVPGLAQGGCCREDAMVASRLTPGSQGLLKMEDVALTLTPGWTQLDSSQVNLYRDEKQENHSSLVSLGGEIQTKSRDLPPVKKLPEKEHGKICHLREDIAQIPTHAEAGEQEGRLQRKQKNAIGSRRHYCHECGKSFAQSSGLTKHRRIHTGEKPYECEDCGKTFIGSSALVIHQRVHTGEKPYECEECGKVFSHSSNLIKHQRTHTGEKPYECDDCGKTFSQSCSLLEHHKIHTGEKPYQCNMCGKAFRRNSHLLRHQRIHGDKNVQNPEHGESWESQGRTESQWENTEAPVSYKCNECERSFTRNRSLIEHQKIHTGEKPYQCDTCGKGFTRTSYLVQHQRSHVGKKTLSQ
# B2: Cyclin-H (Homo sapiens), P51946 (parent)
# chain: MYHNSSQKRHWTFSSEEQLARLRADANRKFRCKAVANGKVLPNDPVFLEPHEEMTLCKYYEKRLLEFCSVFKPAMPRSVVGTACMYFKRFYLNNSVMEYHPRIIMLTCAFLACKVDEFNVSSPQFVGNLRESPLGQEKALEQILEYELLLIQQLNFHLIVHNPYRPFEGFLIDLKTRYPILENPEILRKTADDFLNRIALTDAYLLYTPSQIALTAILSSASRAGITMESYLSESLMLKENRTCLSQLLDIMKSMRNLVKKYEPPRSEEVAVLKQKLERCHSAELALNVITKKRKGYEDDDYVSKKSKHEEEEWTDDDLVESL
# Variants of: B1
# Conditions: with zsc32_human ZSCAN32, Q9NX65
# Chain of zsc32_human ZSCAN32, Q9NX65 (Q9NX65 whole entry): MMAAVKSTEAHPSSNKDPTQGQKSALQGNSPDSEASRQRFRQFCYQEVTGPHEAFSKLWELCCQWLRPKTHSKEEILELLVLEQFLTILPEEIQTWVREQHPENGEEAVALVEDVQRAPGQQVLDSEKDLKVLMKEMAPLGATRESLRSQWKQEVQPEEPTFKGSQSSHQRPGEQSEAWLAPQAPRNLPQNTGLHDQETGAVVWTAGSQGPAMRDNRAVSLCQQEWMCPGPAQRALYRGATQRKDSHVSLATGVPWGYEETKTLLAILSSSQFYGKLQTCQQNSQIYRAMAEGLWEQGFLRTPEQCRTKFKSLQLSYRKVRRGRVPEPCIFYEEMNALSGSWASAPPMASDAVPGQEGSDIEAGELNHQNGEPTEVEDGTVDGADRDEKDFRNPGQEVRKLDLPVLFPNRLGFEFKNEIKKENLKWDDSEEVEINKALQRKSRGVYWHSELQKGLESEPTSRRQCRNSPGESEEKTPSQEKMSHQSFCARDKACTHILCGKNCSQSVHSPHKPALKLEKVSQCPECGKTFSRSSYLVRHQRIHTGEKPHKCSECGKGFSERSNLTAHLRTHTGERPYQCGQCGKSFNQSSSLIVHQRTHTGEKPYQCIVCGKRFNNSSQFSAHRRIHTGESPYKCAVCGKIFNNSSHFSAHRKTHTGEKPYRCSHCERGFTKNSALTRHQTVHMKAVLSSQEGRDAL
row,effect of a mutation on the interaction,Variant
1,with no effect,MAREPRKNAALDAQSAEDQTGFLTVKVEKEEASALTAEVRAPCSPARGPERSRQRFRGFRYPEAAGPREALSRLRELCGQWLQPEMHSKEQILELLVLEQFLTILPGNLQSWVREQHPESGEEVVVLLEYLERQLDEPAPQVPVGDQGQELLCCKMALLTQTQGSQSSQCQPMKALFKHESLGSQPLHDRVLQVPGLAQGGCCREDAMVASRLTPGSQGLLKMEDVALTLTPGWTQLDSSQVNLYRDEKQENHSSLVSLGGEIQTKSRDLPPVKKLPEKEHGKICHLREDIAQIPTHAEAGEQEGRLQRKQKNAIGSRRHYCHECGKSFAQSSGLTKHRRIHTGEKPYECEDCGKTFIGSSALVIHQRVHTGEKPYECEECGKVFSHSSNLIKHQRTHTGEKPYECDDCGKTFSQSCSLLEHHKIHTGEKPYQCNMCGKAFRRNSHLLRHQRIHGDKNVQNPEHGESWESQGRTESQWENTEAPVSYKCNECERSFTRNRSLIEHQKIHTGEKPYQCDTCGKGFTRTSYLVQHQRSHVGKKTLSQ [L22F]
2,with no effect,MAREPRKNAALDAQSAEDQTGLLTVKVEKEEAFALTAEVRAPCSPARGPERSRQRFRGFRYPEAAGPREALSRLRELCGQWLQPEMHSKEQILELLVLEQFLTILPGNLQSWVREQHPESGEEVVVLLEYLERQLDEPAPQVPVGDQGQELLCCKMALLTQTQGSQSSQCQPMKALFKHESLGSQPLHDRVLQVPGLAQGGCCREDAMVASRLTPGSQGLLKMEDVALTLTPGWTQLDSSQVNLYRDEKQENHSSLVSLGGEIQTKSRDLPPVKKLPEKEHGKICHLREDIAQIPTHAEAGEQEGRLQRKQKNAIGSRRHYCHECGKSFAQSSGLTKHRRIHTGEKPYECEDCGKTFIGSSALVIHQRVHTGEKPYECEECGKVFSHSSNLIKHQRTHTGEKPYECDDCGKTFSQSCSLLEHHKIHTGEKPYQCNMCGKAFRRNSHLLRHQRIHGDKNVQNPEHGESWESQGRTESQWENTEAPVSYKCNECERSFTRNRSLIEHQKIHTGEKPYQCDTCGKGFTRTSYLVQHQRSHVGKKTLSQ [S33F]

# Variants of: B1
# Conditions: with zksc7_human ZKSCAN7, Q9P0L1
# Chain of zksc7_human ZKSCAN7, Q9P0L1 (Q9P0L1 whole entry): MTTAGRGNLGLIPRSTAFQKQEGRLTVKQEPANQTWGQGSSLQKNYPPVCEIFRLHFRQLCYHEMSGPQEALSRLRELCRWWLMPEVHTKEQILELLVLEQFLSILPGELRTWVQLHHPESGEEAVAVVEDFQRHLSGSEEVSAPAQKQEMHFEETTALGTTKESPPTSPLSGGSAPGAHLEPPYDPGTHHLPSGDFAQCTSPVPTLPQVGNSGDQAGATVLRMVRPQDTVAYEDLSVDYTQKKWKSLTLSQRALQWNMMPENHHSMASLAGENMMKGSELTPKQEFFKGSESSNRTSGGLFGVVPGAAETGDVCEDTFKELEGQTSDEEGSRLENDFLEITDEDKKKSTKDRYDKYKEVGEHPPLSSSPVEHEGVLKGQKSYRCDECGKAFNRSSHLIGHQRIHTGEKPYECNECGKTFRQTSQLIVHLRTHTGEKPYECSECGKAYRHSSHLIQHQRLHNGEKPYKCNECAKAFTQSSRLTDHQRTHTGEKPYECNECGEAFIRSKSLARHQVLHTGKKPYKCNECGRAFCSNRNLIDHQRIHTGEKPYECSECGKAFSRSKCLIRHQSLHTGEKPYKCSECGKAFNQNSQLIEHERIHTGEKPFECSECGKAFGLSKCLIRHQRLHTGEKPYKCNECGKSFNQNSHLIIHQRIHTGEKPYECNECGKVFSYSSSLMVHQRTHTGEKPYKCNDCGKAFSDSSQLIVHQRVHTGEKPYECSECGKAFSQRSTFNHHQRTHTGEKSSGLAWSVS
row,effect of a mutation on the interaction,Variant
1,with no effect,MAREPRKNAALDAQSAEDQTGFLTVKVEKEEASALTAEVRAPCSPARGPERSRQRFRGFRYPEAAGPREALSRLRELCGQWLQPEMHSKEQILELLVLEQFLTILPGNLQSWVREQHPESGEEVVVLLEYLERQLDEPAPQVPVGDQGQELLCCKMALLTQTQGSQSSQCQPMKALFKHESLGSQPLHDRVLQVPGLAQGGCCREDAMVASRLTPGSQGLLKMEDVALTLTPGWTQLDSSQVNLYRDEKQENHSSLVSLGGEIQTKSRDLPPVKKLPEKEHGKICHLREDIAQIPTHAEAGEQEGRLQRKQKNAIGSRRHYCHECGKSFAQSSGLTKHRRIHTGEKPYECEDCGKTFIGSSALVIHQRVHTGEKPYECEECGKVFSHSSNLIKHQRTHTGEKPYECDDCGKTFSQSCSLLEHHKIHTGEKPYQCNMCGKAFRRNSHLLRHQRIHGDKNVQNPEHGESWESQGRTESQWENTEAPVSYKCNECERSFTRNRSLIEHQKIHTGEKPYQCDTCGKGFTRTSYLVQHQRSHVGKKTLSQ [L22F]
2,with no effect,MAREPRKNAALDAQSAEDQTGLLTVKVEKEEAFALTAEVRAPCSPARGPERSRQRFRGFRYPEAAGPREALSRLRELCGQWLQPEMHSKEQILELLVLEQFLTILPGNLQSWVREQHPESGEEVVVLLEYLERQLDEPAPQVPVGDQGQELLCCKMALLTQTQGSQSSQCQPMKALFKHESLGSQPLHDRVLQVPGLAQGGCCREDAMVASRLTPGSQGLLKMEDVALTLTPGWTQLDSSQVNLYRDEKQENHSSLVSLGGEIQTKSRDLPPVKKLPEKEHGKICHLREDIAQIPTHAEAGEQEGRLQRKQKNAIGSRRHYCHECGKSFAQSSGLTKHRRIHTGEKPYECEDCGKTFIGSSALVIHQRVHTGEKPYECEECGKVFSHSSNLIKHQRTHTGEKPYECDDCGKTFSQSCSLLEHHKIHTGEKPYQCNMCGKAFRRNSHLLRHQRIHGDKNVQNPEHGESWESQGRTESQWENTEAPVSYKCNECERSFTRNRSLIEHQKIHTGEKPYQCDTCGKGFTRTSYLVQHQRSHVGKKTLSQ [S33F]

# Variants of: B1
# Conditions: with znf24_human ZNF24, P17028
# Chain of znf24_human ZNF24, P17028 (P17028 whole entry): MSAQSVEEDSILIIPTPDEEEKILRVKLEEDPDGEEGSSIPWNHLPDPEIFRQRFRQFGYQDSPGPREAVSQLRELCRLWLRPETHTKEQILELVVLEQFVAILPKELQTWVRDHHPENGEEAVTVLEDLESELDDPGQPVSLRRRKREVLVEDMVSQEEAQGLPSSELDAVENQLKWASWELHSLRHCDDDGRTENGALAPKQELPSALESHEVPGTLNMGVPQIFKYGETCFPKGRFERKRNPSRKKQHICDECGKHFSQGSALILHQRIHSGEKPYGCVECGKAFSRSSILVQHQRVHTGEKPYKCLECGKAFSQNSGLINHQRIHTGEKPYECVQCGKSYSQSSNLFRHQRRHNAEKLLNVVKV
row,effect of a mutation on the interaction,Variant
1,with no effect,MAREPRKNAALDAQSAEDQTGFLTVKVEKEEASALTAEVRAPCSPARGPERSRQRFRGFRYPEAAGPREALSRLRELCGQWLQPEMHSKEQILELLVLEQFLTILPGNLQSWVREQHPESGEEVVVLLEYLERQLDEPAPQVPVGDQGQELLCCKMALLTQTQGSQSSQCQPMKALFKHESLGSQPLHDRVLQVPGLAQGGCCREDAMVASRLTPGSQGLLKMEDVALTLTPGWTQLDSSQVNLYRDEKQENHSSLVSLGGEIQTKSRDLPPVKKLPEKEHGKICHLREDIAQIPTHAEAGEQEGRLQRKQKNAIGSRRHYCHECGKSFAQSSGLTKHRRIHTGEKPYECEDCGKTFIGSSALVIHQRVHTGEKPYECEECGKVFSHSSNLIKHQRTHTGEKPYECDDCGKTFSQSCSLLEHHKIHTGEKPYQCNMCGKAFRRNSHLLRHQRIHGDKNVQNPEHGESWESQGRTESQWENTEAPVSYKCNECERSFTRNRSLIEHQKIHTGEKPYQCDTCGKGFTRTSYLVQHQRSHVGKKTLSQ [L22F]
2,with no effect,MAREPRKNAALDAQSAEDQTGLLTVKVEKEEAFALTAEVRAPCSPARGPERSRQRFRGFRYPEAAGPREALSRLRELCGQWLQPEMHSKEQILELLVLEQFLTILPGNLQSWVREQHPESGEEVVVLLEYLERQLDEPAPQVPVGDQGQELLCCKMALLTQTQGSQSSQCQPMKALFKHESLGSQPLHDRVLQVPGLAQGGCCREDAMVASRLTPGSQGLLKMEDVALTLTPGWTQLDSSQVNLYRDEKQENHSSLVSLGGEIQTKSRDLPPVKKLPEKEHGKICHLREDIAQIPTHAEAGEQEGRLQRKQKNAIGSRRHYCHECGKSFAQSSGLTKHRRIHTGEKPYECEDCGKTFIGSSALVIHQRVHTGEKPYECEECGKVFSHSSNLIKHQRTHTGEKPYECDDCGKTFSQSCSLLEHHKIHTGEKPYQCNMCGKAFRRNSHLLRHQRIHGDKNVQNPEHGESWESQGRTESQWENTEAPVSYKCNECERSFTRNRSLIEHQKIHTGEKPYQCDTCGKGFTRTSYLVQHQRSHVGKKTLSQ [S33F]

# Variants of: B1
# Conditions: with zn496_human ZNF496, Q96IT1
# Chain of zn496_human ZNF496, Q96IT1 (Q96IT1 whole entry): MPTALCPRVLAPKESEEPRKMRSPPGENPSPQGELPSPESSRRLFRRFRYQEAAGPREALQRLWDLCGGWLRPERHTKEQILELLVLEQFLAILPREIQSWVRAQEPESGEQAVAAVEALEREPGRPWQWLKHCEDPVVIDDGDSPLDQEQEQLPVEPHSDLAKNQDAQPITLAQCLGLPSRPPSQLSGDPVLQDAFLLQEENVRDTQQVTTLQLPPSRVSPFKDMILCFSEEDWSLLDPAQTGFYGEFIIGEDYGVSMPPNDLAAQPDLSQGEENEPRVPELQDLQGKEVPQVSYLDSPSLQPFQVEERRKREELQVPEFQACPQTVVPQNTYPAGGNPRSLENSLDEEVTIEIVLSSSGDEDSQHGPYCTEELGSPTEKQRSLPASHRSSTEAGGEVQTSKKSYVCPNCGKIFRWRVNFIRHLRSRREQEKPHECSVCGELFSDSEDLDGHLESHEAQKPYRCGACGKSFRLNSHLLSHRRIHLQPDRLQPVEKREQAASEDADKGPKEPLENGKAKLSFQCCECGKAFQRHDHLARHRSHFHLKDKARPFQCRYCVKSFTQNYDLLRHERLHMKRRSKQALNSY
row,effect of a mutation on the interaction,Variant
1,with no effect,MAREPRKNAALDAQSAEDQTGFLTVKVEKEEASALTAEVRAPCSPARGPERSRQRFRGFRYPEAAGPREALSRLRELCGQWLQPEMHSKEQILELLVLEQFLTILPGNLQSWVREQHPESGEEVVVLLEYLERQLDEPAPQVPVGDQGQELLCCKMALLTQTQGSQSSQCQPMKALFKHESLGSQPLHDRVLQVPGLAQGGCCREDAMVASRLTPGSQGLLKMEDVALTLTPGWTQLDSSQVNLYRDEKQENHSSLVSLGGEIQTKSRDLPPVKKLPEKEHGKICHLREDIAQIPTHAEAGEQEGRLQRKQKNAIGSRRHYCHECGKSFAQSSGLTKHRRIHTGEKPYECEDCGKTFIGSSALVIHQRVHTGEKPYECEECGKVFSHSSNLIKHQRTHTGEKPYECDDCGKTFSQSCSLLEHHKIHTGEKPYQCNMCGKAFRRNSHLLRHQRIHGDKNVQNPEHGESWESQGRTESQWENTEAPVSYKCNECERSFTRNRSLIEHQKIHTGEKPYQCDTCGKGFTRTSYLVQHQRSHVGKKTLSQ [L22F]
2,with no effect,MAREPRKNAALDAQSAEDQTGLLTVKVEKEEAFALTAEVRAPCSPARGPERSRQRFRGFRYPEAAGPREALSRLRELCGQWLQPEMHSKEQILELLVLEQFLTILPGNLQSWVREQHPESGEEVVVLLEYLERQLDEPAPQVPVGDQGQELLCCKMALLTQTQGSQSSQCQPMKALFKHESLGSQPLHDRVLQVPGLAQGGCCREDAMVASRLTPGSQGLLKMEDVALTLTPGWTQLDSSQVNLYRDEKQENHSSLVSLGGEIQTKSRDLPPVKKLPEKEHGKICHLREDIAQIPTHAEAGEQEGRLQRKQKNAIGSRRHYCHECGKSFAQSSGLTKHRRIHTGEKPYECEDCGKTFIGSSALVIHQRVHTGEKPYECEECGKVFSHSSNLIKHQRTHTGEKPYECDDCGKTFSQSCSLLEHHKIHTGEKPYQCNMCGKAFRRNSHLLRHQRIHGDKNVQNPEHGESWESQGRTESQWENTEAPVSYKCNECERSFTRNRSLIEHQKIHTGEKPYQCDTCGKGFTRTSYLVQHQRSHVGKKTLSQ [S33F]

# Variants of: B2
# Conditions: with klc3_human KLC3, Q6P597
# Chain of klc3_human KLC3, Q6P597 (Q6P597 whole entry): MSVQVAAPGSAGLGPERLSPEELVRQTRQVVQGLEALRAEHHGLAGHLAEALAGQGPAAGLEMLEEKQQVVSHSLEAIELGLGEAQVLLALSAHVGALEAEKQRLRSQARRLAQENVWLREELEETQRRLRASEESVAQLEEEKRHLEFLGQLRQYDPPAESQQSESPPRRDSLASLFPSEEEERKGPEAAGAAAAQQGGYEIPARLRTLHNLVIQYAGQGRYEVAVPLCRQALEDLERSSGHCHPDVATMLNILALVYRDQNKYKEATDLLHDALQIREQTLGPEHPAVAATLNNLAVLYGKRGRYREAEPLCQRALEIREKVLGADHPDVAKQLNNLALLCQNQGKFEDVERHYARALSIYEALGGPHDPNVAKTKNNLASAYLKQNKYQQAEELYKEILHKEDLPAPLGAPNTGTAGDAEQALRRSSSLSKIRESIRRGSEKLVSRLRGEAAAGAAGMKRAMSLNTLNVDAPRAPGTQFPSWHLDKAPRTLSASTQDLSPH
row,effect of a mutation on the interaction,Variant
1,disrupting interaction strength,MYHNSSQKRHWTFSSEEQLARLRADANRKFRCKAVANGKVLPNDPVFLEPHEEMTLCKYYEKRLLEFCSVFKPAMPRSVVGTACMYFKRFYLNNSVMEYHPRIIMLTCAFLACKVDEFNVSSPQFVGNLRESPLGQEKALEQILEYELLLIQQLTFHLIVHNPYRPFEGFLIDLKTRYPILENPEILRKTADDFLNRIALTDAYLLYTPSQIALTAILSSASRAGITMESYLSESLMLKENRTCLSQLLDIMKSMRNLVKKYEPPRSEEVAVLKQKLERCHSAELALNVITKKRKGYEDDDYVSKKSKHEEEEWTDDDLVESL [N155T]

# Variants of: B2
# Conditions: with lipa1_human PPFIA1, Q13136
# Chain of lipa1_human PPFIA1, Q13136 (Q13136 whole entry): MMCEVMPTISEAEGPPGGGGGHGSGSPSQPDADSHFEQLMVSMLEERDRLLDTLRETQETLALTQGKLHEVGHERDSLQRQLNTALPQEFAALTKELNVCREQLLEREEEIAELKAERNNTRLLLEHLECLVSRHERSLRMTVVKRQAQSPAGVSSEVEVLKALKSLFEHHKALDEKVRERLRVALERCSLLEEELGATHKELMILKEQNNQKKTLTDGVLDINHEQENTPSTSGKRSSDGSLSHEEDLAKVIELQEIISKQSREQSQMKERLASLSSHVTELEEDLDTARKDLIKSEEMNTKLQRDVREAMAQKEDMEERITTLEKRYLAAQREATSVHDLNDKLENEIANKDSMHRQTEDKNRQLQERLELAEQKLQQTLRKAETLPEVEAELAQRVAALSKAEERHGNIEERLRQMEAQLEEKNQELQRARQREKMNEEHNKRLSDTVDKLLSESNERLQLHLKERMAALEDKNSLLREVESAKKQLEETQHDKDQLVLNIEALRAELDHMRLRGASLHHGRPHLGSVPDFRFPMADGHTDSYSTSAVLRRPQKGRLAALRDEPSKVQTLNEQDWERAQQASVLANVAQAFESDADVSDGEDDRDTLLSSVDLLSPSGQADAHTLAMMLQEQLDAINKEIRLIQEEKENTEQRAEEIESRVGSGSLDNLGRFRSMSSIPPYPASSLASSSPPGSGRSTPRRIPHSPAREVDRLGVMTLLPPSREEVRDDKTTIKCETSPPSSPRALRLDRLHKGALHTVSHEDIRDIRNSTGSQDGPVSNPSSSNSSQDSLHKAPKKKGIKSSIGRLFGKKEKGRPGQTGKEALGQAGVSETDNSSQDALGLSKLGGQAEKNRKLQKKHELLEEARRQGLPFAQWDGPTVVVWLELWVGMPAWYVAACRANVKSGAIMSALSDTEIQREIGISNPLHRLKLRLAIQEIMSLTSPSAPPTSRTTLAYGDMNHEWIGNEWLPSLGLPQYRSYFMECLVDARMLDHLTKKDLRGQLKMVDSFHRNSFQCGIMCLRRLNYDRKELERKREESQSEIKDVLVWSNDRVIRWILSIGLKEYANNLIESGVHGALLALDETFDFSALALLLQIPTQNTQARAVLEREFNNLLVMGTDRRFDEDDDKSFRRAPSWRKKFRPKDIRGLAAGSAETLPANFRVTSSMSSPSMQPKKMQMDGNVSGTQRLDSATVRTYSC
row,effect of a mutation on the interaction,Variant
1,disrupting interaction strength,MYHNSSQKRHWTFSSEEQLARLRADANRKFRCKAVANGKVLPNDPVFLEPHEEMTLCKYYEKRLLEFCSVFKPAMPRSVVGTACMYFKRFYLNNSVMEYHPRIIMLTCAFLACKVDEFNVSSPQFVGNLRESPLGQEKALEQILEYELLLIQQLTFHLIVHNPYRPFEGFLIDLKTRYPILENPEILRKTADDFLNRIALTDAYLLYTPSQIALTAILSSASRAGITMESYLSESLMLKENRTCLSQLLDIMKSMRNLVKKYEPPRSEEVAVLKQKLERCHSAELALNVITKKRKGYEDDDYVSKKSKHEEEEWTDDDLVESL [N155T]

# Variants of: B2
# Conditions: with dus12_human DUSP12, Q9UNI6
# Chain of dus12_human DUSP12, Q9UNI6 (Q9UNI6 whole entry): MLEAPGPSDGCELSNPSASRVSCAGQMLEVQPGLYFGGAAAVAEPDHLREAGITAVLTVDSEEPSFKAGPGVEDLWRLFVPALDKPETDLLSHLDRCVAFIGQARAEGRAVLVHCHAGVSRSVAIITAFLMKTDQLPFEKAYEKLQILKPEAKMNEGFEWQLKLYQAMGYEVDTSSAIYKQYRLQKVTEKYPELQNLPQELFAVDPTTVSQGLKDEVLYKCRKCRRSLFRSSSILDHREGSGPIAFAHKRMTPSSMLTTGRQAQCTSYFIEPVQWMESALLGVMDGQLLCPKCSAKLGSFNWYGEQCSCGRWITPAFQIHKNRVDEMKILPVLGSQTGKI
row,effect of a mutation on the interaction,Variant
1,disrupting interaction strength,MYHNSSQKRHWTFSSEEQLARLRADANRKFRCKAVANGKVLPNDPVFLEPHEEMTLCKYYEKRLLEFCSVFKPAMPRSVVGTACMYFKRFYLNNSVMEYHPRIIMLTCAFLACKVDEFNVSSPQFVGNLRESPLGQEKALEQILEYELLLIQQLTFHLIVHNPYRPFEGFLIDLKTRYPILENPEILRKTADDFLNRIALTDAYLLYTPSQIALTAILSSASRAGITMESYLSESLMLKENRTCLSQLLDIMKSMRNLVKKYEPPRSEEVAVLKQKLERCHSAELALNVITKKRKGYEDDDYVSKKSKHEEEEWTDDDLVESL [N155T]

# — IntAct's records for PubMed 31515488
